Data on eight molecules can be found in patent US20150086562A1 (BIOATLA, published 2015).

Usually Kd stands for the constant that tells how readily two partners part at equilibrium.

For test [1], the target named is T1, recombinant CD22 extracellular domain.
T1 construct: Kept apart from m18, which is cell-surface CD22; also called CD22 (analyte in the BIAcore runs); CD22 ECD
Description: The sheet does not state the method. The column 'KD (nM)' stands beside the confocal data, and the target form is taken from FIGURE 18. FIGURE 18 prints 0.30 for this clone. The protocol:
BIAcore 3000, GE Healthcare was used to determine binding curves and kinetic parameters. An anti-human Fc (1.8 mg/ml) was diluted to a concentration of 50 ug/ml in NaOAc buffer (10 mM, pH 4.8) and coupled to the carboxymethylated dextran matrix of a CM-5 sensor chip using the manufacturer's amine-coupling chemistry as described in the BIAcore systems manual. Using the surface preparation wizard aiming for 10000RU, the carboxyl groups on the sensor surfaces were first activated with NHS/EDC followed by the addition of the anti-human Fc. The remaining activated groups were blocked by the injection of 1M ethanolamine. Each of the flow cells was coupled individually. Employing these conditions, the four flow cell surfaces containing 7554-9571 RU of anti-human Fc were prepared. In preliminary experiments, it was determine that three injections (15 ul at 30 ul/min) 100 mM H₃PO₄/0.05% CHAPS would efficiently remove the bound immunoglobulin and preserve the binding capacity of the immobilized anti-human Fc.
Experiments were performed on the BIAcore 3000 at 25° C. and a flow rate of 30 ul/min. […] Using the 1:1 model in BIAevaluation 4.1, both a local fit and global fit was done for both dissociation (kd, [s−1] and association (ka, [M⁻¹s⁻¹]) and the dissociation constant (KD, [M]) calculated (kd/ka).

Test [2] has the same target. Description: ELISA on plates coated with recombinant CD22 extracellular domain (coating 2, 0.2, 0.02 or 0.002 ug/ml per paragraph 227; the sheet does not say which), anti-human IgG-HRP, read at 450 nm. The procedure: Nunc-Immuno MaxiSorp 96 well plates were coated with 100 μl of 2 μg/ml, 0.2 μg/ml, 0.02 μg/ml or 0.002 μg/ml recombinant CD22 extracellular domain (PeproTech, Inc. catalog number 100-01 in coating solution (sodium bicarbonate in PBS). The plates were covered with plate sealer and incubated at 4° C. overnight. Plates were emptied and the residual liquid tapped out on paper towels. 200 μl washing solution (0.05% Tween-20 in PBS) was added and shaken at 200 RPM for 5 min at room temperature. The plates were emptied and residual liquid tapped out on paper towels. 200 μl blocking solution (2% Carnation milk in PBS) was added and shaken at 200 RPM for one hour at room temperature. Plates were emptied and residual liquid tapped out on paper towels. 100 μl of diluted samples containing VM1000, VM1001, VM1002, VM1003, VM1004, VM1005, VM1006, VM1007, VM1008, VM1009, VM1010, VM1011, VM1012, VM1013, VM1014, and VM1015 antibodies for ELISA were used. The samples were shaken at 200 RPM for one hour at room temperature; plates emptied and residual liquid tapped out on paper towels. 200 μl washing solution (0.05% Tween-20 in PBS) was added, shaken at 200 RPM for 5 min at room temperature; plates emptied and residual liquid tapped out on paper towels. This process was repeated three times. 100 μl of 1:2500 dilution of anti-human IgG conjugated with HRP diluted in block solution (2% Carnation milk in PBS) was added for all samples. 100 μl of 1:2500 dilution of anti-rabbit IgG conjugated with HRP diluted in block solution (2% Carnation milk in PBS) was added for control antibody. The contents were shaken at 200 RPM for one hour at room temperature, plates emptied and residue liquid tapped out on paper towels. 200 μl washing solution (0.05% Tween-20 in PBS) was added, shaken at 200 RPM for 5 min at room temperature; plates emptied and residual liquid tapped out on paper towels. This process was repeated three times. 100 μl TMB substrate solution was added, and incubated at room temperature. The reaction was stopped with 1 N HCl, and the plate read at 450 nm to determine relative binding affinity (FIG. 17).
Background: ELISA stands for enzyme-linked immunosorbent assay.

In test [3] the target is T2, CD22 protein expressed on the surface of Daudi cells (human, UniProt P20273 20-847).
T2 sequence (looked up): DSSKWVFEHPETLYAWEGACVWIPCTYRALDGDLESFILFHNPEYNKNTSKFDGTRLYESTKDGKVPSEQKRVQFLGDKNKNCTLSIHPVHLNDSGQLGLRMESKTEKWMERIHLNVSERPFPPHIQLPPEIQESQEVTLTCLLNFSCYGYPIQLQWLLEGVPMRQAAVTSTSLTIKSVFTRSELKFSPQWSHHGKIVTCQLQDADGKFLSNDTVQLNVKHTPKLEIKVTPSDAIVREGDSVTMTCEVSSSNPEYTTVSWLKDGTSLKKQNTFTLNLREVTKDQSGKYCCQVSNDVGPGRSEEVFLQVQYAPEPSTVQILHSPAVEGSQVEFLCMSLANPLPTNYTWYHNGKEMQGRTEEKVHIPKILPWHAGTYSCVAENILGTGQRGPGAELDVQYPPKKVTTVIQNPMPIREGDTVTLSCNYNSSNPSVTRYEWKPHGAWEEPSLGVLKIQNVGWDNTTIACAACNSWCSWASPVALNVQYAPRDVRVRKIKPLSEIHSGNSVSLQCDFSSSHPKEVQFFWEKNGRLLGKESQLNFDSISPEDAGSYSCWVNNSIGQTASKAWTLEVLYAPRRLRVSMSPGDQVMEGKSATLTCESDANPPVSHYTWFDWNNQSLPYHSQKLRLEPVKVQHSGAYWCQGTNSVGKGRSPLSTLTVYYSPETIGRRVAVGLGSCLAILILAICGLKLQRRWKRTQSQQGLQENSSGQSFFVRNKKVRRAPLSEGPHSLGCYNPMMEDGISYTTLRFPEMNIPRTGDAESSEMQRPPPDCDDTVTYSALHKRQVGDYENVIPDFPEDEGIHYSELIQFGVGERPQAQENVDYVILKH
Nature of the test: cell-based or functional assay.

Numbering of substitutions follows the chain as printed.

B1: VM1006 (antibody, V domains shown)
VH: QVQLVQSGAEVKKPGASVKVSCKASGYVFTSYWLHWIRQSPSRGLEWLGYINPRNDYTEYNRIFKGRFVFSLDTSVSTAYLQICSLKAEDTAVYYCARRGITTFYWGQG
VL: DIQMTQSPSSLSASVGDRVTITCKSSQSVLYSAVEKNYLAWYQQKPGKAPKLLIYWASTRERGIPDRFSGSGSGTDFTLTISRLEPEDFAVYYCKQYLSSWTFGQG
notes: Humanized antibody with human constant region; also called anti-CD22 Mab clone VM1006
Consider B1, for which the Kd in test [1] is 2.7 nM. Further, the “ELISA OD 450” value in test [2] was determined as 0.638. For the same molecule, the “Daudi Internalization by FACS, % Shift” value in test [3] stood at 88.3%.

B2: VM1007 (antibody, V domains shown)
VH: QVQLVQSGAEVKKPGASVKVSCKASGYVFTSYWLHWVRQARGQRLEWIGYINPRNDYTEYNRIFKGRVTITADKSTSTAYMELSSLRSEDTAVYYCARRGITTFYWGQG
VL: B1 VL with D1A, M4L, I64V, D66S, L79F, R83S, P86A, F89A, V91T
notes: Humanized antibody with human constant region; also called anti-CD22 Mab clone VM1007
Take B2: the “ELISA OD 450” value in test [2] was 0.538. The “Daudi Internalization by FACS, % Shift” value in test [3] was 85%.

B3: VM1000 (antibody, V domains shown)
VH: QVQLVQSGAEVKKPGASVKVSCKASGYVFTSYWLHWIRQSPSRGLEWLGYINPRNDYTEYNRIFKGRLTISKDTSKNQVVLTMTNMDPVDTATYYCARRGITTFYWGQG
VL: EIVLTQSPATLSLSPGERATLSCKSSQSVLYSAVEKNYLAWYQQKPGKAPKLLIYWASTRERGVPSRFSGSGSGTDFTFTISSLQPEDIATYYCKQYLSSWTFGQG
notes: Humanized antibody with human constant region; also called anti-CD22 Mab clone VM1000
On to B3, for which the “ELISA OD 450” value in test [2] was found to be 0.517. Moreover, the “Daudi Internalization by FACS, % Shift” value in test [3] was found to be 85.9%.

B4: VM1004 (antibody, V domains shown)
VH: B1 VH with Q1E, S17T, V20I, A24V
VL: B3 VL with V64I, S66D, F79L, S83R, Q85E, I89F, T91V
notes: Humanized antibody with human constant region; also called anti-CD22 Mab clone VM1004
In the case of B4, the “ELISA OD 450” value in test [2] was 0.444. Further, in test [3], the “Daudi Internalization by FACS, % Shift” value is 87.1%.

B5: VM1011 (antibody, V domains shown)
VH: QVQLQESGPGLVKPSQTLSLTCTVSGYVFTSYWLHWIRQPPGKGLEWIGYINPRNDYTEYNRIFKGRVTITADKSTSTAYMELSSLRSEDTAVYYCARRGITTFYWGQG
VL: B3 VL with K48Q, K51R, V64I, S66D, F79L, S83R, Q85E, I89F, T91V
notes: Humanized antibody with human constant region; also called anti-CD22 Mab clone VM1011
On to B5, for which, in test [2], the “ELISA OD 450” value is 0.15. Also, the “Daudi Internalization by FACS, % Shift” value in test [3] worked out at 87.1%.

B6: VM1002 (antibody, V domains shown)
VH: B2 VH with Q1E, A16E, V18L, K19R, V20I, A24G, R41P, R44G, I48M
VL: B3 VL with K48Q, K51R, V64I, S66D, F79L, S83R, Q85E, I89F, T91V
notes: Humanized antibody with human constant region; also called anti-CD22 Mab clone VM1002
In the case of B6, the “ELISA OD 450” value in test [2] is 0.495. In test [3], the “Daudi Internalization by FACS, % Shift” value came out at 84.6%.

B7: VM1001 (antibody, V domains shown)
VH: B3 VH
VL: B3 VL with K48Q, K51R, V64I, S66D, F79L, S83R, Q85E, I89F, T91V
notes: Humanized antibody with human constant region; also called anti-CD22 Mab clone VM1001
For B7, in test [2], the “ELISA OD 450” value amounted to 0.386. Further, the “Daudi Internalization by FACS, % Shift” value in test [3] came out at 86.4%.

B8: VM1003 (antibody, V domains shown)
VH: B1 VH with Q1E, S17T, V20I, A24V
VL: B3 VL with K48Q, K51R, V64I, S66D, F79L, S83R, Q85E, I89F, T91V
notes: Humanized antibody with human constant region; also called anti-CD22 Mab clone VM1003
Turning to B8, the “ELISA OD 450” value in test [2] came to 0.56. Further, the “Daudi Internalization by FACS, % Shift” value in test [3] was 70.8%.
